The values below come from paper PMC3129650 (Journal of immunology (Baltimore, Md. : 1950), 2011).

For the assay, the target named is T1, Native purified human beta2-glycoprotein I (β2GPI) (human, UniProt P02749 20-345).
T1 sequence (looked up): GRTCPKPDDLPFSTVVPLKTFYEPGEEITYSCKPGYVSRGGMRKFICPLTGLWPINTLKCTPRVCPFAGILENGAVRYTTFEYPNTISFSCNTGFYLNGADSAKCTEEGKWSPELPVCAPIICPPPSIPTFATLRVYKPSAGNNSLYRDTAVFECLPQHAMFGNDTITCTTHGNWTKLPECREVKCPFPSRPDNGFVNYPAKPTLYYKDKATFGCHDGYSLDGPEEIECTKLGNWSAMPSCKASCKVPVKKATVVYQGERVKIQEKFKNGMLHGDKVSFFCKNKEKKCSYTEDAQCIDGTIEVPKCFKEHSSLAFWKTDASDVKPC
Description: ELISA.

B1: MBP-Ro60 aa 82–244 (domain or fragment)
chain: not shown
modifications: biotin (Sulfo-NHS-Biotin)
On to B1, for which the binding result was “binds”.
